The target of test [1] is full-length human TLR4 encoded by pBIND-TLR4 (human) (UniProt O00206). Kind of test: two-hybrid.
The target in test [2] is full-length human TLR4 encoded by pBIND-TLR4 (human, UniProt O00206 24-839). Description: two-hybrid.
Chain of full-length human TLR4 encoded by pBIND-TLR4 (O00206 24-839): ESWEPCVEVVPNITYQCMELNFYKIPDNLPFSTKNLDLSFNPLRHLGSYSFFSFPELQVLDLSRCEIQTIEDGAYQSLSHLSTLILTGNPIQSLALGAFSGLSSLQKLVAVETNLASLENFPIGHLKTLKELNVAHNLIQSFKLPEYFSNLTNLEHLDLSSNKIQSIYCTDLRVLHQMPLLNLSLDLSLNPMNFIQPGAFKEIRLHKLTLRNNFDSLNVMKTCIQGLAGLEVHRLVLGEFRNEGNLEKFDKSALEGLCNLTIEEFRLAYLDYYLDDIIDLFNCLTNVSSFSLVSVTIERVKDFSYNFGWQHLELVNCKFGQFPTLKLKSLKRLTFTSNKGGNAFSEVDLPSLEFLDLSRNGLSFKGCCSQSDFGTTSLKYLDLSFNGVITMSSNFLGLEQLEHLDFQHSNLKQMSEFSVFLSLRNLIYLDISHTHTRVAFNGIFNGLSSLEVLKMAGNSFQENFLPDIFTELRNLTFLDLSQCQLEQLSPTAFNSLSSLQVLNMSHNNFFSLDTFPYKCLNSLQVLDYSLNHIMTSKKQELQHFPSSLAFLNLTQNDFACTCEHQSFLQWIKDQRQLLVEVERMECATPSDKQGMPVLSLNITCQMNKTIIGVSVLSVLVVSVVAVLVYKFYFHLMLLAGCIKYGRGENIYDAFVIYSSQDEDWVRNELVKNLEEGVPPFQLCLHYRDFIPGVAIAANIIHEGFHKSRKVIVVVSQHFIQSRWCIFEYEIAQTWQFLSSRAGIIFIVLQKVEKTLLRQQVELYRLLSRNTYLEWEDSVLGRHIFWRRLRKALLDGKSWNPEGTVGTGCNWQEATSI

Chain of full-length human TLR4 encoded by pBIND-TLR4 (human) (O00206 24-839): as above

As for “SPA4 peptide alanine mutant NYTXXXRG-12–19→AAAXXXAA encoded by pACT (mammalian two-hybrid fusion)”, in test [1], the percent binding to TLR4 relative to SPA4 peptide (RLU) was 74%.

B1: SPA4 peptide alanine mutant D-2→A encoded by pACT (mammalian two-hybrid fusion) (peptide)
chain: GAFRYSDGTPVNYTNWYRGE
Consider B1, for which the “percent binding to TLR4 relative to SPA4 peptide (RLU)” value in test [2] came out at 81%.
